One protein from patent US20250163183 can be followed below.

The data set deals with LP3, LP9, LP11, and LP18.

B1: human activated protein C (APC) (protein)
chain: ANSFLEELRHSSLERECIEEICDFEEAKEIFQNVDDTLAFWSKHVDGDQCLVLPLEHPCASLCCGHGTCIDGIGSFSCDCRSGWEGRFCQREVSFLNCSLDNGGCTHYCLEEVGWRRCSCAPGYKLGDDLLQCHPAVKFPCGRPWKRMEKKRSHLLIDGKMTRRGDSPWQVVLLDSKKKLACGAVLIHPSWVLTAAHCMDESKKLLVRLGEYDLRRWEKWELDLDIKEVFVHPNYSKSTTDNDIALLHLAQPATLSQTIVPICLPDSGLAERELNQAGQETLVTGWGYHSSREKEAKRNRTFVLNFIKIPVVPHNECSEVMSNMVSENMLCAGILGDRQDACEGDSGGPMVASFHGTWFLVGLVSWGEGCGLLHNYGVYTKVSRYLDWIHGHIRDKEAPQKSWAP
Take B1: the “APC-mediated SEAP-PAR1 cleavage at 0.7-6 nM nanobody” value is “reduced PAR1 cleavage down to 73-82% of controls”.
